Experimental data published in the DeepSol protein solubility set.

experiment: soluble on expression in E. coli; label from the status in PepcDB or PDB records

Sequence | soluble on expression in E. coli
AHHHHHHGSFPHEEKLIREKLGREPNDLEKAMLEVMWSEHVSYKSSRKWLKLLPTKNEHVILGPGEDAGIIKFDDKTWIVIGIESHNHPSAVEPYGGAATGVGGIVRDILCMGARPIALLDPIRFGPLEKEKNRYLFEYVVKGIADYGNRIGVPTVGGETEFDESLDNYTLVNVACIGIMRPEHLVHSYVTEPGLKLVIVGNRTGRDGIHGVTFASEELGENAEEEDRSAVQIPDPFTEKLLIEATLEAVYTGKVKALKDLGGGGLTCAASEMVGKRGFGAIIYADKVPLREPGMTPLEVMISESQERMLFAIKPEDVEELGKIFEKYELEWSVVGEVIEEPKFIVYWKGRKVAELPIELLTNVPTIEWPMKEYRIEEDVETPQISLEEAFEKVWRSPNVISKRWVWEQYDHEVQGRTVIKPGFDSAVLKINEEYGLAITADGNPTHCYLNPYHGAMGVVVEVVRNLVSVGAKPLALVDNLNFASPERPEVYWSFVETIKGLADAAKAFGLAYVSGNVSFYNEVVNKPVKPTPVVAGVGKVKLEKIPRGPREGDLIGLIGETRKELGGSELYRVLGVSKGIAPRVDLEVEKRNAESVLKLIEEGLVSFVHDVSRGGVAVALAELSTWFNVGIKSEITTSLLPLDFAFSESHGRYIVTFPEENLEAVKKIAPITLLGRIGGEKFELKINGEKVSKTVKWLSDVHWNELYRIMD | not soluble
AHHHHHHGSIEVRFHGRGGQGAVTAANILAEAAFLEGKYVQAFPFFGVERRGAPVTAFTRIDNKPIRIKTQIYEPDVVVVLDPSLLDAVDVTAGLKDEGIVIVNTEKSKEEVLEKLKKKPKKLAIVDATTIALEILGLPITNTAILGAVAKATGLVKIESIEEAIKDTFSGELGEKNARAAREAYEKTEVFEL | soluble
AHHHHHHGSIKLRDELGTATTDSAQKILLLGSGELGKEIAIEAQRLGVEVVAVDRYANAPAMQVAHRSYVGNMMDKDFLWSVVEREKPDAIIPEIEAINLDALFEFEKEGYFVVPNAKATWIAMHRERLRETLVKEAKVPTSRYMYATTLDELYEACEKIGYPCHTKAIMSSSGKGSYFVRGPEDIPKAWEEAKTKARGSAEKIIVEEHIDFDVEITELAVRHFDENGEIVTTFPKPVGHYQIDGDYHASWQPAEISEKAEREVYRIAKRITDVLGGLGLFGVEMFVKGDKVWANEVSPRPHDTGMVTLASHPPGFSEFGLHLRAVLGLPIPGEWVDGYRLFPMLIPAATHVIKAKVSGYSPRFRGLAKALSVPNATIRLFGKPEAYPGRRLGVVLAWDKDVQEAKKRAEMVAHMIELRTRSSDWHSQDYEKRKHLL | soluble
AHHHHHHGSKIKVGINGYGTIGKRVAYAVTKQDDMELIGVTKTKPDFEAYRAKELGIPVYAASEEFLPRFEKAGFEVEGTLNDLLEKVDIIVDATPGGMGEKNKQLYEKAGVKAIFQGGEKAEVAQVSFVAQANYEAALGKDYVRVVSCNTTGLVRTLNAIKDYVDYVYAVMIRRAADPNDIKRGPINAIKPSVTIPSHHGPDVQTVIPINIETSAFVVPTTIMHVHSIMVELKKPLTREDVIDIFENTTRVLLFEKEKGFESTAQLIEFARDLHREWNNLYEIAVWKESINVKGNRLFYIQAVHQESDVIPENIDAIRAMFEIAEKWESIKKTNKSLGILK | soluble
AHHHHHHGSKVVIVGNGPGGFELAKQLSQTYEVTVIDKEPVPYYSKPMLSHYIAGFIPRNRLFPYSLDWYRKRGIEIRLAEEAKLIDRGRKVVITEKGEVPYDTLVLATGARAREPQIKGKEYLLTLRTIFDADRIKESIENSGEAIIIGGGFIGLELAGNLAEAGYHVKLIHRGAMFLGLDEELSNMIKDMLEETGVKFFLNSELLEANEEGVLTNSGFIEGKVKICAIGIVPNVDLARRSGIHTGRGILIDDNFRTSAKDVYAIGDCAEYSGIIAGTAKAAMEQARVLADILKGEPRRYNFKFRSTVFKFGKLQIAIIGNTKGEGKWIEDNTKVFYENGKIIGAVVFNDIRKATKLEKEILDFYS | soluble
